Test results taken from publication PMC9900698, “Phosphorylation Regulation of a Histone-like HU Protein from Deinococcus radiodurans”.

T1: DrHU T37E (Deinococcus radiodurans R1 (ATCC13939), UniProt Q9RZ89 1-122, T37E)
T1 sequence: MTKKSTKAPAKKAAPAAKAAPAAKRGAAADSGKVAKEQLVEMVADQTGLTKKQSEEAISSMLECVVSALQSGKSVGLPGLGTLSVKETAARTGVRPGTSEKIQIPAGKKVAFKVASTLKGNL

T2: DrHU T37A (Deinococcus radiodurans R1 (ATCC13939), UniProt Q9RZ89 1-122, T37A)
T2 sequence: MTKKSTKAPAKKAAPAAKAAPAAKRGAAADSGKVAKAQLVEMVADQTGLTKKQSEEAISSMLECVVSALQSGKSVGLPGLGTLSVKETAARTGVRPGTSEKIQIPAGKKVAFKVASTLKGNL

B1: Duplex DNA (48bp) (dsDNA)
DNA 1: TAACAAGCAGAGTCAATTATGTCAATGACATAAAAGGCTCAGGCCTTC
DNA 2: GAAGGCCTGAGCCTTTTATGTCATTGACATAATTGACTCTGCTTGTTA
B2: Duplex DNA (24bp) (dsDNA)
DNA 1: TCAATTATGTCAATGACATAAAAG
DNA 2: CTTTTATGTCATTGACATAATTGA
B3: Duplex DNA (36bp) (dsDNA)
DNA 1: GCAGAGTCAATTATGTCAATGACATAAAAGGCTCAG
DNA 2: CTGAGCCTTTTATGTCATTGACATAATTGACTCTGC

Legend:
DrHU T37E = biological target: T1, DrHU T37E; experiment: EMSA; 10 mM Mg2+; EMSA: 50 mM NaCl, 20 mM Tris-HCl pH 8.0, 0.1 mg/ml BSA, 3 mM DTT, 0.1 mM EDTA, 10% glycerol, 10 mM MgCl2, 50 nM DNA, 0-3200 nM DrHU, room temperature 20 min; 22% native PAGE in 1x TB; conditions: protein: recombinant; tags: N-terminal His-MBP (pET28a-HMT), removed by TEV; chain copies: 2; label: 5'-FAM; blunt
DrHU T37A = biological target: T2, DrHU T37A; experiment: as above; conditions: protein: recombinant; tags: N-terminal His-MBP (pET28a-HMT), removed by TEV; chain copies: 2; label: 5'-FAM; blunt

Row | Binder | Kd (DrHU T37E) | binding result (DrHU T37A)
1 | B1 | 389 ± 56 nM | no binding
2 | B2 | 1180 ± 95.9 nM | no binding
3 | B3 | 457 ± 62.9 nM | no binding
